Test results: PMC2614558

Tests used:
[1] = molecular target: cytoplasmic (C-terminal, soluble) domain of the putative zinc transporter CzrB from Thermus thermophilus, His-tag-free (Thermus thermophilus); assay: small-angle X-ray scattering
[2] = molecular target: cytoplasmic (C-terminal, soluble) domain of the putative zinc transporter CzrB from Thermus thermophilus, His-tag-free (Thermus thermophilus); assay: SEC
[3] = molecular target: cytoplasmic (C-terminal, soluble) domain of the putative zinc transporter CzrB from Thermus thermophilus, His-tag-free (Thermus thermophilus); assay: small-angle X-ray scattering; remark: listed apart in the source

Measured: stoichiometry N

cytoplasmic (C-terminal, soluble) domain of the putative zinc transporter CzrB from Thermus thermophilus, His-tag-free (domain or fragment)
2: all assays above
